Legend:
[1] = biological target: soluble bovine M6P/IGF2R (mannose 6-phosphate/insulin-like growth factor II receptor) (bovine) (UniProt P08169); assay: radioligand binding; competitive displacement of 1.5 nM ^125I-PMP-BSA tracer from soluble bovine M6P/IGF2R coupled to Sepharose 4B; test ligands 1 pM to 10 μM; 50 mM HEPES pH 7.4, 0.15 M NaCl, 0.05% Triton X-100; 16 h at 4°C
[2] = biological target: recombinant human insulin-like growth factor II (IGF-II); assay: direct radioligand binding (125I-IGF-II) to FLAG-tagged receptor immunoprecipitated on M2 α-FLAG affinity resin; conditions: equimolar amounts of expressed soluble receptors from cell lysates; parent: est. 5800; read off a plot
[3] = biological target: soluble bovine M6P/IGF2R (mannose 6-phosphate/insulin-like growth factor II receptor) (bovine) (UniProt P08169)
[4] = biological target: T1, soluble bovine M6P/IGF2R (mannose 6-phosphate/insulin-like growth factor II receptor) (bovine, UniProt P08169 45-2313); assay: radioligand binding; competitive displacement of 1.5 nM ^125I-PMP-BSA tracer from soluble bovine M6P/IGF2R coupled to Sepharose 4B; test ligands 1 pM to 10 μM; 50 mM HEPES pH 7.4, 0.15 M NaCl, 0.05% Triton X-100; 16 h at 4°C; conditions: both partners purified
T1 construct: soluble form of the bovine mannose 6-phosphate/IGF-II receptor as it circulates in fetal bovine serum; also called sIGF2R; soluble M6P/IGF2R; source: purified from fetal bovine serum; coupled to Sepharose 4B for the displacement assay

[5] = biological target: T2, wild-type, full-length ectodomain M6P/IGF2R mini-receptor with C-terminal FLAG (1-15F) (human, UniProt P11717 41-2304); assay: radioligand binding; competitive displacement of 2 nM ^125I-PMP-BSA from FLAG-tagged soluble receptors immunoprecipitated on M2 α-FLAG resin and washed; PMP-ligands 1 pM to 10 μM; assay buffer, 4 h at 4°C; conditions: both partners purified
T2 construct: human M6P/IGF2R, all 15 ectodomain repeats; also called wild-type M6P/IGF2R construct; source: HEK 293, transiently transfected; cell lysates and conditioned media, immunoadsorbed to M2 α-FLAG resin; not shown: FLAG, C-terminal, kept

[6] = biological target: T3, full-length ectodomain M6P/IGF2R mini-receptor with R1325A (repeat 9), C-terminal FLAG (human, UniProt P11717 41-2304, R1325A); assay: as above; conditions: both partners purified
T3 construct: human M6P/IGF2R, all 15 ectodomain repeats, arginine-to-alanine substitution in the 9th domain; also called R1325AF; source: HEK 293, transiently transfected; cell lysates and conditioned media, immunoadsorbed to M2 α-FLAG resin; not shown: FLAG, C-terminal, kept

[7] = biological target: T4, full-length ectodomain M6P/IGF2R mini-receptor with R426A (repeat 3), C-terminal FLAG (human, UniProt P11717 41-2304, R426A); assay: radioligand binding; direct binding of ^125I-PMP-BSA or ^125I-hGUS to equimolar FLAG-tagged soluble receptors immunoadsorbed from HEK 293 lysates/conditioned media to M2 α-FLAG resin and washed; conditions: both partners purified
T4 construct: human M6P/IGF2R, all 15 ectodomain repeats, arginine-to-alanine substitution in the 3rd domain; also called R426A mutant construct; source: HEK 293, transiently transfected; cell lysates and conditioned media, immunoadsorbed to M2 α-FLAG resin; not shown: FLAG, C-terminal, kept

[8] = biological target: T2, wild-type, full-length ectodomain …; assay: as above; conditions: both partners purified
[9] = biological target: T3, full-length ectodomain M6P/IGF2R …; assay: as above; conditions: both partners purified

soluble bovine M6P/IGF2R (mannose 6-phosphate/insulin-like growth factor II receptor) (bovine), sequence (P08169 45-2313): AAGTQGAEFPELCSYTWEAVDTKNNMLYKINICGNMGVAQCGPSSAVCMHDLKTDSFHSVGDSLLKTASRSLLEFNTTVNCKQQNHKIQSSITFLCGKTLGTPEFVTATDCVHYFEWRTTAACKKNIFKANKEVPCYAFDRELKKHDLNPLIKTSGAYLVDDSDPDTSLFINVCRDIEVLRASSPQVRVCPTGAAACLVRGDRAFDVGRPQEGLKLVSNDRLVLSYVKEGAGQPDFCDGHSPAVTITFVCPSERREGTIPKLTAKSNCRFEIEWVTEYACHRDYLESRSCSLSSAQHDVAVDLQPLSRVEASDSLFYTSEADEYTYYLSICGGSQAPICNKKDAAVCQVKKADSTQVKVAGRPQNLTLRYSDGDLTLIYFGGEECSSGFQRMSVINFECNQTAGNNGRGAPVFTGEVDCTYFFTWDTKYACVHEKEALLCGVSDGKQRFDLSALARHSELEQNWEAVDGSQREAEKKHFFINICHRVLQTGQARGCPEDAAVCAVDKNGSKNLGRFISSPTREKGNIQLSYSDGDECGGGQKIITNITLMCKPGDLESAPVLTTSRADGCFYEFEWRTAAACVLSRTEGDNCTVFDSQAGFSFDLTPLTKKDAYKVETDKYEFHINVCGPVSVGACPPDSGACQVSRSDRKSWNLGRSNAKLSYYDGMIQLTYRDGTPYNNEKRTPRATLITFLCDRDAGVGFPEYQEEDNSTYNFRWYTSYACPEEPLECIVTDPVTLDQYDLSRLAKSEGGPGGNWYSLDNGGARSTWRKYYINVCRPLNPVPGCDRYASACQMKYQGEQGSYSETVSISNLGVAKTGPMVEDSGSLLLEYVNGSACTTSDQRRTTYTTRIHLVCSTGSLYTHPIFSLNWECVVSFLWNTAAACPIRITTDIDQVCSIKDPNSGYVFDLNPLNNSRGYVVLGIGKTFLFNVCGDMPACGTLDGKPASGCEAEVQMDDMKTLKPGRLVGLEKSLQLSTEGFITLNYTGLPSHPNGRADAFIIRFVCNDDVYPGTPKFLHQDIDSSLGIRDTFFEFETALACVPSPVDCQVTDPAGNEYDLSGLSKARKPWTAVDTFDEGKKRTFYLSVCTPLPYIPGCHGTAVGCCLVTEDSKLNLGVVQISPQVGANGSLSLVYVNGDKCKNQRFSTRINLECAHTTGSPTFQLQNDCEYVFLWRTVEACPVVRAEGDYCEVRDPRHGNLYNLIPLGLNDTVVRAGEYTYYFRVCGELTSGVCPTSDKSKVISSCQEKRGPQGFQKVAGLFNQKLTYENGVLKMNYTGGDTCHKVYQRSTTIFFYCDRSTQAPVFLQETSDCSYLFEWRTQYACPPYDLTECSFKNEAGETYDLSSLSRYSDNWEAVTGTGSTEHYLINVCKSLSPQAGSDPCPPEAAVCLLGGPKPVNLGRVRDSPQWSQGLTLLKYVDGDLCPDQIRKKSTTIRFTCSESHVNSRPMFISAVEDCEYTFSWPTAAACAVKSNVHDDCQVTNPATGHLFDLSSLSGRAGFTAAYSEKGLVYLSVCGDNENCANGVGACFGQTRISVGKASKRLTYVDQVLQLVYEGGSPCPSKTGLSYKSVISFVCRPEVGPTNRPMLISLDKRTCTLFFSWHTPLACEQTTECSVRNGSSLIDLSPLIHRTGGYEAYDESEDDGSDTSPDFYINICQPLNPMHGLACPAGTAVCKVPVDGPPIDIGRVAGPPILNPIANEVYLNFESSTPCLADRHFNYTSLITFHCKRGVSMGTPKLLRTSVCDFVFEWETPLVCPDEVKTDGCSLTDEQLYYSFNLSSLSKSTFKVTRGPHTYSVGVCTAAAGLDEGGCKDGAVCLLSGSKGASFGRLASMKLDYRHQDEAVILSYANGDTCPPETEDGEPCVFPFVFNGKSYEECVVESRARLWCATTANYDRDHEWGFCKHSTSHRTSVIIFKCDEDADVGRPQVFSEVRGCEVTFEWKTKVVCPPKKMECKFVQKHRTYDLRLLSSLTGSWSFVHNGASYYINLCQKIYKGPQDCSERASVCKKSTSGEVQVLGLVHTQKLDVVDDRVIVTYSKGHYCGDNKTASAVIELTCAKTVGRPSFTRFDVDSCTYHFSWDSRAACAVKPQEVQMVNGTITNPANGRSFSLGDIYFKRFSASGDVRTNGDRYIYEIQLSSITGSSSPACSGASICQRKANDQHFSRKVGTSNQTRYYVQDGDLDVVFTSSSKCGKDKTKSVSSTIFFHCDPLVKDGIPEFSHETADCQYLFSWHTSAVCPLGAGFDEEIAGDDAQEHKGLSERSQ
T1 sequence (P08169 45-2313): as above

| Molecule | IC50 [1] | RBA (relative binding affinity, normalized to free M6P) [1] | response [2] | further results |
| --- | --- | --- | --- | --- |
| pentamannosyl 6-phosphate-derivatized lysyl-tyrosyl-lysine (PMP-KYK) (peptide) | 120 nM | 600 | – | – |
| wild-type, full-length ectodomain M6P/IGF2R mini-receptor with C-terminal FLAG (1-15F) (from UniProt P11717) R426A; R1325A | – | – | 5900 CPM | – |
| wild-type, full-length ectodomain M6P/IGF2R mini-receptor with C-terminal FLAG (1-15F) (from UniProt P11717) R426A | – | – | 5300 CPM | – |
| pentamannosyl 6-phosphate-derivatized bovine insulin (PMP-INS) (ligand) | 13 nM | 5540 | – | – |
| wild-type, full-length ectodomain M6P/IGF2R mini-receptor with C-terminal FLAG (1-15F) (from UniProt P11717) R1325A | – | – | 5000 CPM | – |
| pentamannosyl 6-phosphate-derivatized seryl-tyrosyl-lysine (PMP-SYK) (peptide) | 52 nM | 1380 | – | suppression of growth (MTT, 2 days) of mouse L cells over-expressing the M6P/IGF2R, PMP-SYK 1 pM to 1 μM; blocked by saturating M6P [3]: 50% |
| pentamannosyl 6-phosphate-derivatized chicken egg ovalbumin (PMP-OVA) (ligand, UniProt P01012 1-386, looked up, pentamannosyl 6-phosphate (PMP) coupled by reductive amination, approximately 13 PMP groups, chicken egg white albumin (ovalbumin); source: bought: Sigma (A-5503), conjugated to PMP with NaCNBH3, dialysed and gel filtered (Sephadex G-50)) MGSIGAASMEFCFDVFKELKVHHANENIFYCPIAIMSALAMVYLGAKDSTRTQINKVVRFDKLPGFGDSIEAQCGTSVNVHSSLRDILNQITKPNDVYSFSLASRLYAEERYPILPEYLQCVKELYRGGLEPINFQTAADQARELINSWVESQTNGIIRNVLQPSSVDSQTAMVLVNAIVFKGLWEKAFKDEDTQAMPFRVTEQESKPVQMMYQIGLFRVASMASEKMKILELPFASGTMSMLVLLPDEVSGLEQLESIINFEKLTEWTSSNVMEERKIKVYLPRMKMEEKYNLTSVLMAMGITDVFSSSANLSGISSAESLKISQAVHAAHAEINEAGREVVGSAEAGVDAASVSEEFRADHPFLFCIKHIATNAVLFFGRCVSP | – | – | – | IC50 [4]: 21 nM; binding result [5]: binds; binding result [6]: binds |
| human β-glucuronidase (hGUS) (enzyme, UniProt P08236 23-651, looked up, multiple high-mannose N-linked oligosaccharides capped with M6P; ^125I-labelled (IODOGEN) where used as tracer, human β-glucuronidase, a homotetrameric lysosomal enzyme; source: purified human β-glucuronidase provided by Dr. William S. Sly) LQGGMLYPQESPSRECKELDGLWSFRADFSDNRRRGFEEQWYRRPLWESGPTVDMPVPSSFNDISQDWRLRHFVGWVWYEREVILPERWTQDLRTRVVLRIGSAHSYAIVWVNGVDTLEHEGGYLPFEADISNLVQVGPLPSRLRITIAINNTLTPTTLPPGTIQYLTDTSKYPKGYFVQNTYFDFFNYAGLQRSVLLYTTPTTYIDDITVTTSVEQDSGLVNYQISVKGSNLFKLEVRLLDAENKVVANGTGTQGQLKVPGVSLWWPYLMHERPAYLYSLEVQLTAQTSLGPVSDFYTLPVGIRTVAVTKSQFLINGKPFYFHGVNKHEDADIRGKGFDWPLLVKDFNLLRWLGANAFRTSHYPYAEEVMQMCDRYGIVVIDECPGVGLALPQFFNNVSLHHHMQVMEEVVRRDKNHPAVVMWSVANEPASHLESAGYYLKMVIAHTKSLDPSRPVTFVSNSNYAADKGAPYVDVICLNSYYSWYHDYGHLELIQLQLATQFENWYKKYQKPIIQSEYGAETIAGFHQDPPLMFTEEYQKSLLEQYHLGLDQKRRKYVVGELIWNFADFMTEQSPTRVLGNKKGIFTRQRQPKSAAFLLRERYWKIANETRYPHSVAKSQCLENSLFT | – | – | – | binding result [7]: binds; binding result [8]: binds; binding result [9]: binds |
